From the DeepSol protein solubility set

Assay: soluble on expression in E. coli; label from the status in PepcDB or PDB records

MIMTNINTACVKNNASYQLNNALPNKETISSNFCERLEQWGNKSVNNGEERAIAVERIKEAYNSNMASLDLSYLDLSELPPIPSTVNTLNLENNCLTCLDLADNASLVNINLSVNKINTITFPKEPKLENIYINHNNLESLDLKNQHSLVNLEAQNNSLKKLEHHHHHH
soluble on expression in E. coli: not soluble

MVKLRDWQEKLKDKVIEGLRNNFLVALNAPTGSGKTLFSLLVSLEVKPKVLFVVRTHNEFYPIYRDLTKIREKRNITFSFLVGKPSSCLYAEKGAESEDIPCKYCELKGSIVEVKTDDSPLSLVKKLKKDGLQDKFCPYYSLLNSLYKADVIALTYPYFFIDRYREFIDIDLREYMIVIDEAHNLDKVNELEERSLSEITIQMAIKQSKSEESRRILSKLLNQLREVVLPDEKYIKVENVPKLSKEELEILADDYEDIRKDSLKQGKVNKIHIGSILRFFSLLSIGSFIPFSYSKRLVIKNPEISYYLNLLNDNELSIILMSGTLPPREYMEKVWGIKRNMLYLDVEREIQKRVSGSYECYIGVDVTSKYDMRSDNMWKRYADYLLKIYFQAKANVLVVFPSYEIMDRVMSRISLPKYVESEDSSVEDLYSAISANNKVLIGSVGKGKLAEGIELRNNDRSLISDVVIVGIPYPPPDDYLKILAQRVSLKMNRENEEFLFKIPALVTIKQAIGRAIRDVNDKCNVWLLDKRFESLYWKKNLKCLNANKMKL
soluble on expression in E. coli: soluble

MIMVNNDAVVRNVYHKYFHPKEALVSSGVLNREISRAAGKAVPGIIDEESSGNNAQ
soluble on expression in E. coli: soluble

VAVGDVDAPVGLVVFSDYQCPFCAKWSDETLPQMMKHVEDGNLRIEWREVNIFGEPSERGARAAYAAGLQDAYLEYHNALFANGEKPSEDLLSEEGLIKLAGDLGLDESKFTADFQSPETAVAIAQHQQLGIDLGAYSTPAFLLGGQPIMGAQPASVFEAAFEQALAAKE
soluble on expression in E. coli: not soluble

MGSDKIHHHHHHMFQWKKLGKVFTPQDINNRPWLKEFAQAPATLVFDDFVRVYFSCRPPVDEHGMYVSYSAWVDLDRNNLFNVLRVSEKPILPLGQSGEFDEFGTYPVSVVRDENIFRAYYAGWTRCESVPFNVAIGMAISDDGDVFRKAGPGPIISYSPEEPFVMSGPKIRRFNGEWQLFYIAGRRWKLVDGRAEPVYKIRMAVSSDGTNWRKINKDLISSRIEEDEAQASPDVFYANGRYHMFFCYRYSEHYRGKKHGYRIGYAWSSDLIDWHRDDEKVGIDVSETGWDSEMISYPHVFELDGKVYMAYLGDQVGRYGFGLAQLEGELR
soluble on expression in E. coli: not soluble

MANEMKVFLLTKQGQEVMERQRKKQVLLSDPKAVYQDHFVSVRPDCLVVKKYFIPSMLPFEFHWDKIETMTYLPQNNENKLLVPNRGQDQEGRWWATDVLRPHERELHLYNVRIDVADTEPSKSGFTVIHIDQFLKSCRHLLPYSCKLSGCVWSE
soluble on expression in E. coli: not soluble

MLKQNTEREGRTIEQEDLKNLENEITEARENEDKYFSTFKGVRGQLIKECQEMKDEAFKIAYDGVMADSKHLENVKAGRLTEVQHEELAKEKGQEASEKALPKTPLGVAIMLKHYLRFIRVKPEAQGQKAPLYFFHPDHGVWLEDNEFLQDLISVIFPNATEKQAFDTLYKIARQSQLKEIQREYTVIGNQLYNYKTGQFEELTPDITVTRKIKTGYNKKAKEPTIKGWKPTAWLLELFDGDAELYNLAIQIIKASITGQSLQKIFWLFGEGGTGKGTFQQLLINLVGMDNVASLKITELAKSRFTTSILLGKSIVIGDDIQKDAVIKDTSDIFSLATGDIMTIEDKGKRPYSIRLNMTVVQSSNGLPRMNGDKSAIDRRFRILPFTKVFKGKPNKAIRNDYINRKEVLEYLLKLAIETPITDINPKASIEILEEHHKEMNPVIDFVSKFFTDELTSEFIPNSFVYHVWKGFLEYYDIKQIKSERGLHKEIKSNLPEGFEAGQKVIPVGRQLHTGFYPKEDLPLFASASYANGRASPEKRKKPKNERGYYNHWPTHKKQKKT
soluble on expression in E. coli: soluble

GMRNPSEDHMMRTPYQIVADHYAASDRHDPAAMMADIAPAIEWTEMAGFPCAGTYRSADEIVRNVFRRLGEEWDGYTFKLDALHDAGDTVIGVGRYSGTYRRTGKSFECRVAHVWRVDAGKIVHFEQFTDTLLVAQAMQP
soluble on expression in E. coli: soluble

MSLYDNDLWFATINLPYRQKLELLRIYKTSDEILYNFKNSELIQKYKFDIEKINYIKDEMKKSGMKIVFWNDDDYPKVLKNYDDMPYGLFYMGNIKKLNELNYNVAIVGSRRCTQYGKDITTIISREISINGIGIISGMARGIDTYAHKICLENNGYTCAVLGCGADVIYPKENKNLYCQIIRNGCIISQYKPNTKPLPYNFPIRNKIISGLSNLVLVTEADIKSGSIITASSALEQGKDVGAVPGSVFSKMSRGTNKLIQDGAHVIKDIDDVFGILNFQKINFKKIRNNSSYSSMPENQRQIYDLVSDKPIHVDDIKRCLNIDIQELYELLFEMQLKNKILCLSGSYYVRVNDCLEGHHHHHH
soluble on expression in E. coli: soluble

GSHMNNEDFSQWSVDDVITWCISTLEVEETDPLCQRLRENDIVGDLLPELCLQDCQDLCDGDLNKAIKFKILINKMRDSKLEWKD
soluble on expression in E. coli: soluble

MGHHHHHHSHMNPLKNIKCTKCPEVFQGVEKLVFHMRAQHFIFMCPRCGKQFNHSSNLNRHMNVHRGVKSHSCGICGKCFTQKSTLHDHLNLHSGARPYRCSYCDVRFAHKPAIRRHLKEQHGKTTAENVL
soluble on expression in E. coli: soluble

MAHRAFIQVIITGTQVFGKAFAEAYRQAASQSVKQGATNASRRGTGKGEYGGITLDESCKILNIEESKGDLNMDKINNRFNYLFEVNDKEKGGSFYLQSKVYRAAERLKWELAQREKNAKAKAGDASTAKPPPNSTNSSGADNSASSNQ
soluble on expression in E. coli: not soluble

MKPEKRHATESMTMEALLDLLPKDAATDPTGRRLAELVTRIATKRVPVSSFSRIWNLGSLQARVTIGYVAYWLRSRFADSDEKQRLRNEAHLAAALRLFGTMGYLRGAVMKIGQLLANLPEVVPEEFAEVLSALHFEAPPMHFSLVRELFLDEFGREPEELFASFDRQAFAAASLGQVHRARLKSGEEVAVKIQYPGIARTIKADLRNLRLLLQPLCLTNDWQNTLDKLADIEQMLLMETDYEQEARFCREARLLFTTEDRVVVPRVFDDYSTKRVLTTEFLTGCHLDQFLAGNPSQAERDHFTTLLTVATMRIYYRLHWFCADPHPGNFIFMLDGRLGLIDFGCTRAMNGEEWRLICELEQAHQEEDAEQFDRVIARATLYDSPEAMGKEQLAVVRRNVLWNMEPWLKEGLFDFGDREFFMRGIDGLMELTRKRYTRGSPLYLWSTRFVLGGRAVCYQMRGRCEFQEIFRQESAWVCPEPPILEHHHHHH
soluble on expression in E. coli: not soluble

MDSDRLSSVEQFPDRGNNHVEEGSAIDYQRVPPLSGTHYASTVSAGFYEATPLLGSLVHTLEHGAVIVYYDPDEISPEARQSLREFSSVHTGTWRSVVAVPNPNDDPRATYVVTAWQHELTIDSYDAETVHAFLSEYLGRGPENPVRLEHHHHHH
soluble on expression in E. coli: not soluble

DGTLVVDIDGCISHANPAAETLLAGPEESLVGQQVEAVIPTWDSLTVDDEQADWSELALSVDGQQRFVELEVTPFADRF
soluble on expression in E. coli: not soluble

GPGSMPSAPTSVTAVVQLPPLIDCHVHFREPGLEHKADIASESTAAYYGGITVACDMPNTSPPTQSVAALADKVARAKATAHAHCQLFFFFGATAEAHLQELEELWTNPAHAELKTHCCGLKLYLDNSTGNMKSSLSVVEKSFEMCGRLQIVLVAHCEQSEINDAAAAQHPYDGPASHSLRRPADSEAASVQSAIALARQCRTPLHLAHVSTAQSLDLIREARAADPTLQLTCEVTPHHLFLTTSDYSCCGARVKVNPPVRPPQHHEALWAGLLDGTVDCVGTDHAPHTIAEKDHCDAAAQPPSGMPAIEVVVPLLLTVVAGQWPHPTAAKPSALAAAEHQGRTLTLDDVVRVLHTNPNRIFNLRQPDAPHRSFDLACEWTVRGEELHSKCQWTPYEGWRLRGRVLANE
soluble on expression in E. coli: soluble
